Data as given in patent publication US20200325480A1 (NOGRA PHARMA, published 2020).

Target: T1, TGF-β1 R1 (mouse, UniProt Q64729 30-503)
T1 construct: Endogenous protein in total cell extracts; It is seen only as part of the 102 Kda band on the anti-Smad7 Western blot; also called TGF-β1 receptor R1
T1 sequence (looked up): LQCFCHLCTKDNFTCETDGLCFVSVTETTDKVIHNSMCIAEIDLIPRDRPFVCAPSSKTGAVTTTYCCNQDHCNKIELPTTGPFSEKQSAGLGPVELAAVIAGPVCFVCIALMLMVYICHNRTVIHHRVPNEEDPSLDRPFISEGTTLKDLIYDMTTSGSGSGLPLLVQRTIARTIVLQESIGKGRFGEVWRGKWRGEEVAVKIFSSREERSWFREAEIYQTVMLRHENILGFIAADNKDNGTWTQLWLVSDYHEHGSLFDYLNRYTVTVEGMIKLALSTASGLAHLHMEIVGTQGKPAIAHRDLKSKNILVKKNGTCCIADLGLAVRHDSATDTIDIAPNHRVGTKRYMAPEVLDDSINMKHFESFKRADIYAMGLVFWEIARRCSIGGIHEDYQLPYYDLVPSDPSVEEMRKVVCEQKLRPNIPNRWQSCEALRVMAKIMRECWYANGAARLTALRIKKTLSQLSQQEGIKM
Test: Western blot of LPMC total protein extracts with anti-Smad7 antibody (FIG. 3)

- binding result: binds
B1: Smad7 (other, mouse, UniProt O35253 1-426, looked up)
chain: MFRTKRSALVRRLWRSRAPGGEDEEEGVGGGGGGGELRGEGATDGRAYGAGGGGAGRAGCCLGKAVRGAKGHHHPHPPTSGAGAAGGAEADLKALTHSVLKKLKERQLELLLQAVESRGGTRTACLLLPGRLDCRLGPGAPASAQPAQPPSSYSLPLLLCKVFRWPDLRHSSEVKRLCCCESYGKINPELVCCNPHHLSRLCELESPPPPYSRYPMDFLKPTAGCPDAVPSSAETGGTNYLAPGGLSDSQLLLEPGDRSHWCVVAYWEEKTRVGRLYCVQEPSLDIFYDLPQGNGFCLGQLNSDNKSQLVQKVRSKIGCGIQLTREVDGVWVYNRSSYPIFIKSATLDNPDSRTLLVHKVFPGFSIKAFDYEKAYSLQRPNDHEFMQQPWTGFTVQISFVKGWGQCYTRQFISSCPCWLEVIFNSR
notes: Endogenous protein in total cell extracts, detected by Western blot with a rabbit anti-human Smad7 antibody; also called free Smad7 (47 Kda band)
